Values quoted from earlier work in US20180296685A1, “TARGETED CONSTRUCTS AND FORMULATIONS THEREOF” (TARVEDA THERAPEUTICS, INC., priority 2017, published 2018).

Details: transthyretin, serum protein

For Transthyretin, the in vivo half-life is given as “around 48 h”.
